{"source": "paper PMC3158961", "origin": "cited, not measured here", "key": {"[1]": {"target": "CEP55 (Homo sapiens) (UniProt Q53EZ4)", "sequence (Q53EZ4 whole entry)": "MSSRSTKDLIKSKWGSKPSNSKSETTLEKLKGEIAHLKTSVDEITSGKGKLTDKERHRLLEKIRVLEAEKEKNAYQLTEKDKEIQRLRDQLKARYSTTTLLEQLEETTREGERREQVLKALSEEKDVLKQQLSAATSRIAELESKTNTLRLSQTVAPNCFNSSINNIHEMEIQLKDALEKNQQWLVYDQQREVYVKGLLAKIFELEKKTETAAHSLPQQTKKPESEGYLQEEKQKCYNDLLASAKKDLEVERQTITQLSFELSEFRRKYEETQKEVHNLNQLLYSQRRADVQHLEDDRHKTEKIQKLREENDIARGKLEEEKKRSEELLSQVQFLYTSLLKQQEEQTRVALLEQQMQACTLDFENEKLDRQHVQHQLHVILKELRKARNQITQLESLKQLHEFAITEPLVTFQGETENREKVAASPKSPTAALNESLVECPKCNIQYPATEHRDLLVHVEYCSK"}, "[2]": {"target": "Nedd4 WW3 (UniProt P46934)", "sequence (P46934 840-873)": "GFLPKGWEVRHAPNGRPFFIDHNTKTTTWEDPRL"}, "[3]": {"target": "CEP55 (Homo sapiens) (UniProt Q53EZ4)", "remark": "listed apart in the source"}}, "note": "Where two headings read alike, the source gives them in different places."}
{"substance": "ALIX GPPX3Y peptide (from UniProt Q8WUM4)", "values": [{"measurement": "Kd", "setting": "[1]", "value": 1000, "unit": "nM"}]}
{"substance": "ENaC β subunit PPXY peptide (from UniProt P51168)", "values": [{"measurement": "Kd", "setting": "[2]", "value": 20000, "unit": "nM"}]}
{"substance": "TSG101 GPPX3Y peptide (from UniProt Q99816)", "values": [{"measurement": "Kd", "setting": "[3]", "value": 1000, "unit": "nM"}]}
